B1: LMNB1 (parent)
chain: LYKEELEQTYHAKLENARLSSEMN

Variants of: B1
Assay: protein stability index of a GFP-peptide fusion (GPS, HEK-293T) (PSI 1-6); higher = more stable
Conditions: c terminus: a fixed tail appended
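Also: lentivirally expressed fusions sorted by FACS into six bins by GFP to DsRed ratio, PSI derived from sequencing read proportions per bin multiplied by bin number.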

Row | Variant | protein stability index
1 | LYKEELEQTYHAKLENARLSSQMN | 2.73
2 | LYKEELEQTYHAKLENARRSSEMN | 3.79
3 | LYKEELEQTYHAKLENARLASEMN | 2.63
4 | LYREELEQTYHAKLENARLSSEMN | 2.9
5 | LYKEELEQTYHAELENARLSSEMN | 4.33
6 | LYKEELEQTYEAKLENARLSSEMN | 4.71
7 | LYKEENEQTYHAKLENARLSSEMN | 4.57
8 | LYKEELEQTYHAKLENARLSSSMN | 3.44
9 | LYKEELEQTYHAKLENARLSSNMN | 3.3
10 | SYKEELEQTYHAKLENARLSSEMN | 2.9
11 | LYKEELKQTYHAKLENARLSSEMN | 2.77
12 | NYKEELEQTYHAKLENARLSSEMN | 2.98
13 | LYKEELEQTYHAKLENARLGSEMN | 2.7
14 | LYKEELEDTYHAKLENARLSSEMN | 3.46
15 | LYKEELEQTYHAKLEQARLSSEMN | 3.32
16 | QYKEELEQTYHAKLENARLSSEMN | 3.6
17 | LYKEELEQTYHAFLENARLSSEMN | 2.25
18 | LYKEELEQTYHAKLEVARLSSEMN | 2.3
19 | LYKEELEQTYHAKLENARLSSRMN | 2.88
20 | LYKEELEQTYHAKLESARLSSEMN | 2.42
21 | LYKEELEQTYHAKLENVRLSSEMN | 1.41
22 | LYKEELEQTYHAKLENARLSSECN | 2.76
23 | LYKEELAQTYHAKLENARLSSEMN | 2.47
24 | LYKEDLEQTYHAKLENARLSSEMN | 3.01

Row | Variant | protein stability index
25 | LYKEELEQTYHAKLENARLSSGMN | 2.81
26 | LYKEELGQTYHAKLENARLSSEMN | 3.23
27 | LYQEELEQTYHAKLENARLSSEMN | 2.56
28 | LYKIELEQTYHAKLENARLSSEMN | 2.02
29 | FYKEELEQTYHAKLENARLSSEMN | 2.27
30 | LYKEELEQTYHLKLENARLSSEMN | 3.17
31 | LYKEELEQTYHAKLQNARLSSEMN | 2.58
32 | LYKEELEQTYHAKLENARESSEMN | 4.75
33 | LYKEELEQTYHAKLENARLSSEKN | 3.28
34 | LYKEELEQTYHAILENARLSSEMN | 1.95
35 | LYKEELENTYHAKLENARLSSEMN | 2.8
36 | LYKEELEQTYHAKGENARLSSEMN | 4.36
37 | LYKEELEQTYHAKLENARLSFEMN | 2.42
38 | LYKEEIEQTYHAKLENARLSSEMN | 3.46
39 | LHKEELEQTYHAKLENARLSSEMN | 4
40 | LYKEELEQTYHYKLENARLSSEMN | 3.52
41 | LYKEELEQTYHAKLENARLSSEMI | 2.48
42 | LYKEELEQVYHAKLENARLSSEMN | 2.61
43 | LYKEELEQTYHAKLEGARLSSEMN | 2.27
44 | LYKEELEQTYHAKLSNARLSSEMN | 2.33
45 | LDKEELEQTYHAKLENARLSSEMN | 4.18
46 | LYKEELEQTYHAKLENARLSSEMY | 2.27
47 | LYKEELEQYYHAKLENARLSSEMN | 3.31
48 | IYKEELEQTYHAKLENARLSSEMN | 2.5

Row | Variant | protein stability index
49 | LYKEELEQTYHAKLENAKLSSEMN | 3.31
50 | LYKEELEQTYHAKLENARLDSEMN | 2.71
51 | LYKEELEQTCHAKLENARLSSEMN | 4.16
52 | LYKEELEQTYHPKLENARLSSEMN | 3.73
53 | LYKEELVQTYHAKLENARLSSEMN | 3.05
54 | LYKEELEQTVHAKLENARLSSEMN | 4.49
55 | LYKEALEQTYHAKLENARLSSEMN | 2.28
56 | LYKAELEQTYHAKLENARLSSEMN | 2.7
57 | LYKEELEQTYHAKLENARLRSEMN | 3.26
58 | LYVEELEQTYHAKLENARLSSEMN | 1.67
59 | LYKEELEQTYHAKTENARLSSEMN | 4.34
60 | LYKEELEHTYHAKLENARLSSEMN | 2.08
61 | LYKEELEQTYHAKLENWRLSSEMN | 1.78
62 | LYKEELEQTYHAKLENCRLSSEMN | 1.82
63 | LYKEELETTYHAKLENARLSSEMN | 3.21
64 | LYKEELEQTYHAKLEAARLSSEMN | 2.98
65 | LYKEELEQTYHAKLANARLSSEMN | 2.61
66 | LYKEELEQTYHAKLHNARLSSEMN | 2.38
67 | LYKEELEQTYHAKLENARLSSWMN | 1.74
68 | LAKEELEQTYHAKLENARLSSEMN | 2.91
69 | LYKEEAEQTYHAKLENARLSSEMN | 4.29
70 | LYKEELEQTYHAKLENACLSSEMN | 2.6
71 | LYKEELEQTYHAKLENATLSSEMN | 2.73
72 | LYKEELEQTYHAKLENARLSSEMR | 3.11

Row | Variant | protein stability index
73 | LYKEELEQTYHAKLENARLSSENN | 2.95
74 | LYKEELEQTYHAKLENARLSSEHN | 2.94
75 | LSKEELEQTYHAKLENARLSSEMN | 4.12
76 | LYKEELMQTYHAKLENARLSSEMN | 2.07
77 | LYKEELEQTYHAKLENARLSSEMP | 2.17
78 | LYKELLEQTYHAKLENARLSSEMN | 3.89
79 | LYKEELEQTYHAKLENARLSYEMN | 2.1
80 | LYKEELEQTYHWKLENARLSSEMN | 2.65
81 | LYKEELEQTYHAKCENARLSSEMN | 4.28
82 | LYCEELEQTYHAKLENARLSSEMN | 2.64
83 | LYKECLEQTYHAKLENARLSSEMN | 2.32
84 | LYKEELEQTYHAKSENARLSSEMN | 4.66
85 | LYKEELEQTYHAKLENARLSSEMA | 2.43
86 | LYKEELEQTYHAKLENARLSPEMN | 2.37
87 | LYKEELEQTYHAKLENTRLSSEMN | 2.61
88 | LYKEELEQTYHAKLENARLSAEMN | 2.68
89 | LYKEELEQTYHVKLENARLSSEMN | 3.48
90 | LKKEELEQTYHAKLENARLSSEMN | 3.27
91 | KYKEELEQTYHAKLENARLSSEMN | 2.97
92 | LYKEELEQTYHMKLENARLSSEMN | 2.36
93 | LYKEELDQTYHAKLENARLSSEMN | 3.52
94 | LYKEELEQTYRAKLENARLSSEMN | 2.88
95 | LYKEELEQTYHAKLVNARLSSEMN | 2.01
96 | LYKEELEPTYHAKLENARLSSEMN | 3.84

Row | Variant | protein stability index
97 | LYKEELCQTYHAKLENARLSSEMN | 2.11
98 | LYKEELEQTYHAKLENARLSSPMN | 2.4
99 | LYKEELEQTYHATLENARLSSEMN | 2.06
100 | LYKEELEQTYHAKLENARLSSTMN | 2.35
101 | LYKEPLEQTYHAKLENARLSSEMN | 3.1
102 | LYKEELEQTYHAKLFNARLSSEMN | 2.38
103 | LYKEELEQTYHHKLENARLSSEMN | 3.71
104 | LYKEELEQTYHAKLENARSSSEMN | 3.08
105 | LYKEELEQTYHAKLENARLSHEMN | 2.59
106 | LYKFELEQTYHAKLENARLSSEMN | 2.37
107 | LYKEELEQTYTAKLENARLSSEMN | 4.16
108 | LYKEELEQTYHAKLENSRLSSEMN | 3.61
109 | LYKEELEQTYHAKLENARLLSEMN | 3.38
110 | LYKEELEQTYHAKLENQRLSSEMN | 3.72
111 | LYKEELEQTYHAKLENARLSSEMT | 2.46
112 | LYKEELEQTYYAKLENARLSSEMN | 2.48
113 | LYKEEREQTYHAKLENARLSSEMN | 4.38
114 | LYKEELEQTYHAKLENARWSSEMN | 1.8
115 | LYKEELEQTYVAKLENARLSSEMN | 3.53
116 | LYKEELEQTYHAKLENARLSSDMN | 2.62
117 | LYKESLEQTYHAKLENARLSSEMN | 2.4
118 | LYKEELEQTYHAKLENARLSSETN | 2.52
119 | LYKEELEQTYHAKLENARLSSELN | 2.19
120 | LLKEELEQTYHAKLENARLSSEMN | 3.04

Row | Variant | protein stability index
121 | LYKEELEQTYHAKLENARLSSEVN | 2.46
122 | LYKEELEQTYHAKLENARLSSKMN | 2.61
123 | LYKEELEQTYHAKLENLRLSSEMN | 2.44
124 | LYKEELEQTYHAKLENARLSSEMQ | 3.04
125 | LYKEEKEQTYHAKLENARLSSEMN | 4.4
126 | LYKEELEQTYHAKLENPRLSSEMN | 2.66
127 | LYKEELEQTYHAKLENARLSSEPN | 2.67
128 | LYKEELEQTYHAKLEFARLSSEMN | 1.89
129 | LYKENLEQTYHAKLENARLSSEMN | 2.53
130 | LYKKELEQTYHAKLENARLSSEMN | 2.46
131 | LYKEELEQDYHAKLENARLSSEMN | 4.61
132 | LYKEELEQTYHAKLENARLTSEMN | 2.74
133 | LYKEELEQTYHAKLENKRLSSEMN | 3.9
134 | YYKEELEQTYHAKLENARLSSEMN | 3.24
135 | LYKEELEQTYHAKLENARLKSEMN | 3.6
136 | LYKEELESTYHAKLENARLSSEMN | 2.56
137 | LYKEELEQTYHAKLEKARLSSEMN | 2.98
138 | LYKEELEQTYHAKDENARLSSEMN | 4.74
139 | LYKEELEQTYHIKLENARLSSEMN | 2.87
140 | LYKEELEQTYHAKLENARLSCEMN | 2.02
141 | LYGEELEQTYHAKLENARLSSEMN | 2.73
142 | LYKEEWEQTYHAKLENARLSSEMN | 4.74
143 | LYKEEDEQTYHAKLENARLSSEMN | 4.72
144 | LYKEELEQTYHAKLENARLMSEMN | 2.58

Row | Variant | protein stability index
145 | LYKEELEQTYHAKLENARLSLEMN | 1.78
146 | LYKEELEQTYHAKLENARLSNEMN | 2.55
147 | LYKCELEQTYHAKLENARLSSEMN | 2.38
148 | LYKEELEQTYHAKLENMRLSSEMN | 1.98
149 | LYKEELQQTYHAKLENARLSSEMN | 3.4
150 | LYKEELEQTYHTKLENARLSSEMN | 4.08
151 | LYKEELEQTYHQKLENARLSSEMN | 4.25
152 | LYKEELEQTYHAKLENFRLSSEMN | 1.82
153 | LYKEQLEQTYHAKLENARLSSEMN | 1.54
154 | LYKEELNQTYHAKLENARLSSEMN | 3.38
155 | LYKEELEQTYHAMLENARLSSEMN | 2.48
156 | LYKEELEQTYWAKLENARLSSEMN | 3.08
157 | LYKEELEQTYIAKLENARLSSEMN | 3.12
158 | LYKEELEQTNHAKLENARLSSEMN | 4.67
159 | LYKEELEQTYHAKLENARLFSEMN | 2.29
160 | LYKEELEQTYHEKLENARLSSEMN | 4.72
161 | HYKEELEQTYHAKLENARLSSEMN | 3.19
162 | LYKEELEQTWHAKLENARLSSEMN | 2.63
163 | LYKYELEQTYHAKLENARLSSEMN | 2.08
164 | VYKEELEQTYHAKLENARLSSEMN | 2.75
165 | LYKEELEQTFHAKLENARLSSEMN | 3.67
166 | LYKEELEQTYHAKLEYARLSSEMN | 1.83
167 | LYKEELEQTYHAKWENARLSSEMN | 3.11
168 | LYKEELEQTYNAKLENARLSSEMN | 3.14

Row | Variant | protein stability index
169 | LYKEFLEQTYHAKLENARLSSEMN | 2.28
170 | LYKEETEQTYHAKLENARLSSEMN | 4.75
171 | LYKEELEQTYHAKLENARLISEMN | 2.81
172 | LYKEELEQCYHAKLENARLSSEMN | 3.12
173 | LYKEECEQTYHAKLENARLSSEMN | 3.8
174 | LYKEELEQTYHAKLELARLSSEMN | 3.23
175 | LYKEELEQTYHAKLENARLSSEMK | 2.33
176 | LYKEEVEQTYHAKLENARLSSEMN | 4.34
177 | LYKTELEQTYHAKLENARLSSEMN | 3.06
178 | LYKEELEQTYHAKLETARLSSEMN | 2.96
179 | LYKEELEQTYHAKLENARLSSEMS | 2.64
180 | LYNEELEQTYHAKLENARLSSEMN | 3.29
181 | MYKEELEQTYHAKLENARLSSEMN | 3.06
182 | LYKEELEWTYHAKLENARLSSEMN | 1.71
183 | LYKEELEQTYHAKLMNARLSSEMN | 1.94
184 | LYKEELEQTYHAKLDNARLSSEMN | 3.48
185 | LYKPELEQTYHAKLENARLSSEMN | 3.68
186 | LYKEWLEQTYHAKLENARLSSEMN | 1.37
187 | LYKEELEQTYMAKLENARLSSEMN | 3.45
188 | LYKEMLEQTYHAKLENARLSSEMN | 2.42
